Assay results: US9605038B2, “Fusion peptide comprising dhFas-1 domain and MMP substrate and use thereof for preventing and treating rheumatoid arthritis” (Kyungpook National University Industry-Academic Cooperation …, priority 2010, dated 2017)
Residue numbers refer to the chain shown, from its start. Entries after “also recorded” stand apart in the source; their conditions may differ.

B1: MFK23: fusion peptide having sequential links of mdhFas-1, MMP2 substrate GPLGVRG (SEQ ID NO: 5), and QERGDSLA (SEQ ID NO: 10) (protein)
chain: QAMPPEELNKLLANAKELTNILKYHIGDEILVSGGIGALVRLKSLQGDKLEVSSKNNVVSVNKEPVAETDIMEFGPLGVRGVDGQERGDSLAGLE
modifications: MFK23
B2: MFK24: fusion peptide having sequential links of mdhFas-1, MMP1 substrate GPQGIAG (SEQ ID NO: 6), and QERGDSLA (SEQ ID NO: 10) (protein)
chain: B1 chain with L77Q, V79I, R80A
modifications: MFK24

Key:
[1] = test system: mouse fibroblast (NIH3T3); test: βig-h3-mediated cell adhesion test, NIH3T3; assay type: cell-based; conditions: for βig-h3-mediated cell adhesion: NIH3T3, βig-h3 5 ug/ml coat
Description: (§1) Human βig-h3 was introduced into a 96-well plate at a concentration of 5 ug/ml, and coated for 14 hours at 4° C. In DMEM+0.5% BSA (Bovine Serum Albumin) culture medium, human fibroblast (NIH3T3) was introduced, and hsdhFas-1 peptide at concentrations was injected thereto, followed by mixing. The resultant mixture was cultured at 37° C. for 30 minutes, and plated on a coated well. It was cultured for 2 hours, and washed with PBS (phosphate buffered saline) so as to remove unattached cells, and then added with a substrate (4-Nitrophenyl N-acetyl-β-D-glucosaminide, Sigma, U.S.) to be activated by β-N-acetylglucosaminidase within the cell, followed by culturing at 37° C. for 1 hour. Then, a glycine EDTA solution (0.5M EDTA, 50 mM glycine, pH 10.4) was added thereto, and the coloring extent according to the number of attached cells was measured by absorbance.
Also, a structurally modified peptide of a fas-1 domain of mouse βig-h3 was synthesized as a recombinant peptide (hereinafter, referred to as ‘mdhFas-1peptide’, see FIG. 2), and a mouse cell line, that is, NIH3T3 cell line, was used to test the inhibiting effect by mdhFas-1 peptide on adhesion and migration of a Synovial membrane cell in the same manner as that in the test using human βig-h3.
as §1, with “βig-h3” for “Human βig-h3”, “mouse” for “human”, “MFK23, MFK24, MFK25 or MFK27” for “hsdhFas-1 peptide”

cathepsin D = cathepsin D (Homo sapiens, UniProt P07339); test: Enzymatic digestion test, cathepsin D; assay type: biochemical; conditions: 3 ug peptide, cathepsin D 5, 10, 50 ng, 37° C. 4 hours
Description: 3 ug of synthesized mdhFas-1-MMPsubstrate structure modified protein, together with MMP1 (5 ng, 10 ng and 50 ng), MMP2 (100 ng, 200 ng and 800 ng), MMP3 (10 ng, 50 ng and 100 ng), cathepsin D (5 ng, 10 ng and 50 ng), cathepsin L (100 ng, 200 ng and 800 ng), and cathepsin K (10 ng, 50 ng and 100 ng), was mixed with enzyme buffer (150 mM NaCl, 5 mM. CaCl2, 20 mM Tris-HCl pH7.5), and reacted at 37° C. for 4 hours. The resultant product was subjected to electrophoresis through 15% polyacrylamide gel, transferred to a Nitrocellulose Membrane (Schleicher & Schuell), blocked at room temperature for 1 hour with TBST solution containing 3% BSA (20 mmole/L Tris-HCl, 137 mmole//l NaCl, 0.1% Tween-20), washed TBST solution three times (each for 10 minutes), and reacted with primary antibody (anti-Histidine or anti-Bigh3) for 1 hour. The resultant product was washed with TBST solution three times (each for 10 minutes), reacted with a secondary antibody conjugated to horseradish peroxidase (HRP) for 1 hour, washed TBST solution three times (each for 10 minutes), and visualized by ECL (Amersham Biosciences, UK) so as to detect the change in the amount of mdhFas-1-MMPsubstrate-RGD structural peptide.

[2] = test system: collagen-induced arthritis (CIA) mouse model; test: Arthritis therapeutic effect in CIA mouse (clinical arthritis index); assay type: in vivo
Description: A CIA mouse model having the similar characteristic to that of human rheumatoid arthritis was prepared according to the description in a known literature (Protocol for the successful induction of collagen-induced arthritis (CIA) and collagen antibody-induced arthritis (CAIA) in mice. Chondrex, Redmond, Wash.): Bovine type 2 collagen 100 ug was mixed with Freund's complete adjuvant, and hypodermically inoculated into the tail of the mouse. After 3 weeks, bovine type 2 collagen 100 ug was mixed with Freund's incomplete adjuvant, and inoculated again into the tail of the mouse. Then, the mouse was used in the experiment.
In order to find out the therapeutic effect of arthritis in a CIA model, for four weeks from the onset (the 23rd day) of arthritis following the second injection of the bovine type 2 collagen, MFK23 or MFK24 was daily injected into the abdominal cavity in doses of 0.1 mg/kg, 1 mg/kg, 10 mg/kg and 30 mg/kg. As a control group, the same amount of PBS was injected into the abdominal cavity. From the 23rd day to the 50th day, by using a Clinical arthritis index, the severity of arthritis was daily determined. The determination was based on the following data.
0; no symptom, 1; edema in one articulation or light edema, 2; severe edema in 2 or more articulations, 3; severe edema in most articulations, 4; severe edema in the whole of legs.

[3] = test system: foot tissue of CIA mouse (Synovial membrane, cartilage, bones; CD31, ICAM-1); test: Histologic and immunohistochemistry test on foot tissue of CIA mouse; assay type: in vivo; conditions: CIA mouse foot tissue, 50th day, FIGS. 18 and 20
Description: In order to determine the action mechanism of an arthritis therapeutic effect in a CIA model, on the 50th day following the second injection of the bovine type 2 collagen (after 4 weeks from the onset (the 23rd day) of arthritis following the second injection of the bovine type 2 collagen), foot tissues of treatment groups were separated and subjected to histologic analysis. Then, in the tissues, a change in the expression of inflammatory mediators was examined.
A tissue sample was prepared by the following process. Skin on the foot tissue was removed. Then, the tissue was fixed in 10% formalin solution for 2 days, and demineralized in 10% EDTA solution. The demineralized tissue was subjected to a dehydrating process and a clearing process, paraffin-embedded, and was made into a fragment with a thickness of 3 um by a microtome. The tissue fragment was deparaffinized and re-dehydrated by 100% xylene and ethanol, and then non-specific peroxidase within the tissue was blocked by a solution of 0.3% hydrogen peroxide dissolved in 100% methanol.
In order to carry out an immunohistochemistry test, binding of non-specific protein was blocked by 5% BSA. Then, the tissue was cultured, together with each primary antibody (as endothelial cell markers, an antibody to CD31, and an antibody to ICAM-1 (intercellular adhesion molecule-1)), at 4° C. for 12 to 14 hours, and washed with washing buffer (0.1% BSA, 0.2% gelatin, 0.05% saponin). It was cultured together with a secondary antibody labeled with biotin at room temperature for 30 minutes, was washed, reacted with Vectastatin ABC kit (Vector Laboratories, U.S.), and was mounted with Eukitt mounting media (Fluka, Germany) for observation.

cathepsin D, sequence (P07339 65-412, species assumed): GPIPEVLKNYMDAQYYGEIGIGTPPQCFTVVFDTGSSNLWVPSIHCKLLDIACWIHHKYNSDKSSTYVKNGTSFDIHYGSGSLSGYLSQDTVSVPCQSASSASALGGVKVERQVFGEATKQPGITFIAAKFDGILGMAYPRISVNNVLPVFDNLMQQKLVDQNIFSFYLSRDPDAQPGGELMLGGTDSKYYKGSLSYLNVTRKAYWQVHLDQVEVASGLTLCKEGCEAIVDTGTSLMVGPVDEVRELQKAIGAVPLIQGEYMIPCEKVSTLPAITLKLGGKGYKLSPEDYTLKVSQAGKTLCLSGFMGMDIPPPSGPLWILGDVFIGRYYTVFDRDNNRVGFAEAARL

Row | Molecule | concentration at which treatment inhibited the adhesion ([1]; NIH3T3, FIG. 14) [µM] | βig-h3-mediated cell adhesion [1] | cleavage through treatment with cathepsin D (cathepsin D) | arthritis inhibiting effect (clinical arthritis index), in words ([2]; daily into the abdominal cavity) | deformation of cartilage and bones (HE stain) [3] | proliferation of a Synovial membrane cell (HE stain) [3] | adhesion inhibiting effect ([1]; NIH3T3, concentration of 0.5uM, FIG. 15C) [%] | concentration relative to conventional mdhFas-1 or MFK12 that shows a higher arthritis inhibiting effect [2] | arthritis inhibition (clinical arthritis index) ([2]; 0.1 mg/kg daily into the abdominal cavity, four weeks)
1 | B1 | ≥ 5 | even at a very low concentration can inhibit the cell adhesion; also recorded: concentration-dependently inhibited | not cleaved | excellent effect on arthritis | reduced the deformation of cartilage and bones | inhibited the proliferation of a Synovial membrane cell | – | – | –
2 | B2 | – | even at a very low concentration can inhibit the cell adhesion; also recorded: concentration-dependently inhibited | not cleaved | – | reduced the deformation of cartilage and bones | inhibited the proliferation of a Synovial membrane cell | ≥ 80 | 1/100 | about 70%
